# T1: M.EcoR124INT methyltransferase (UniProt P10484 1-520; P10485 1-215)
# T1 construct: HsdM (modification subunit, M) of the Type I restriction-modification system EcoR124I; SNT: residues 1-215 of the parent specificity subunit HsdS (S) of EcoR124I, holding the N-terminal target recognition domain and the central conserved region; Complex formed beforehand (M and SNT), to which HsdR was added; M2 stoichiometry is printed for Type I MTases in general (M2S); 'two modified SNT …
# T1 sequence (looked up) 1: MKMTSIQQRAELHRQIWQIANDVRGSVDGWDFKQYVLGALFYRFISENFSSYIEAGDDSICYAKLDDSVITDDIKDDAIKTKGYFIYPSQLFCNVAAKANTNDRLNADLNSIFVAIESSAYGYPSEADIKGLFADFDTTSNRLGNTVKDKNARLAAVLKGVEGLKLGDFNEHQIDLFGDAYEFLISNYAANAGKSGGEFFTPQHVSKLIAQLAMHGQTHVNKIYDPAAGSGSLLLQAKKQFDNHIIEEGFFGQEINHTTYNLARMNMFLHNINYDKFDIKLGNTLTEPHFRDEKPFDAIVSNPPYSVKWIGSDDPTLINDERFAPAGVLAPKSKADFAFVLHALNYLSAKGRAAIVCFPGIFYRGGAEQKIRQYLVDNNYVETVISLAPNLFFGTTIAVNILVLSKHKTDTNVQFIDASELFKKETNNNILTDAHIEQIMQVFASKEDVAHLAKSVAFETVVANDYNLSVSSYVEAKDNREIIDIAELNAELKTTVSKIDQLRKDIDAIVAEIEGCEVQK
# T1 sequence (looked up) 2: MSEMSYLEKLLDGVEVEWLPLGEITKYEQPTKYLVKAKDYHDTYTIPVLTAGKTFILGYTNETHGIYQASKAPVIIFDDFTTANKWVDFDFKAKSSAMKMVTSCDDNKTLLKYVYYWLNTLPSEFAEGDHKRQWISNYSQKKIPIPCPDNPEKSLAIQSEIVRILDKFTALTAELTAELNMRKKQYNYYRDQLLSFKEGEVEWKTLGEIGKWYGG
# B1: HsdR from EcoR124I (enzyme, UniProt P10486 1-1038, looked up)
# chain: MTHQTHTIAESNNFIVLDKYIKAEPTGDSYQSESDLERELIQDLRNQGYEFISVKSQSAMLANVREQLQNLNGVVFNDSEWRRFTEQYLDNPSDGILDKTRKIHIDYICDFIFDDERLENIYLIDKKNLMRNKVQIIQQFEQAGSHANRYDVTILVNGLPLVQIELKKRGVAIREAFNQIHRYSKESFNSENSLFKYLQLFVISNGTDTRYFANTTKRDKNSFDFTMNWAKSDNTLIKDLKDFTATCFQKHTLLNVLVNYSVFDSSQTLLVMRPYQIAATERILWKIKSSFTAKNWSKPESGGYIWHTTGSGKTLTSFKAARLATELDFIDKVFFVVDRKDLDYQTMKEYQRFSPDSVNGSENTAGLKRNLDKDDNKIIVTTIQKLNNLMKAESDLPVYNQQVVFIFDECHRSQFGEAQKNLKKKFKRYYQFGFTGTPIFPENALGSETTASVFGRELHSYVITDAIRDEKVLKFKVDYNDVRPQFKSLETETDEKKLSAAENQQAFLHPMRIQEITQYILNNFRQKTHRTFPGSKGFNAMLAVSSVDAAKAYYATFKRLQEEAANKSATYKPLRIATIFSFAANEEQNAIGEISDETFDTSAMDSSAKEFLDAAIREYNSHFKTNFSTDSNGFQNYYRDLAQRVKNQDIDLLIVVGMFLTGFDAPTLNTLFVDKNLRYHGLMQAFSRTNRIYDATKTFGNIVTFRDLERSTIDAITLFGDKNTKNVVLEKSYTEYMEGFTDAATGEAKRGFMTVVSELEQRFPDPTSIESEKEKKDFVKLFGEYLRAENILQNYDEFATLKALQQIDLSDPVAVEKFKAEHYVDDEKFAELQTIRLPADRKIQDYRSAYNDIRDWQRREKEAEKKEKSTTDWDDVVFEVDLLKSQEINLDYILGLIFEHNRQNKGKGEMIEEVKRLIRSSLGNRAKEGLVVDFIQQTNLDDLPDKASIIDAFFTFAQREQQREAEALIKEENLNEDAAKRYIRTSLKREYATENGTELNETLPKLSPLNPQYKTKKQAVFQKIVSFIEKFKGVGGKI
# notes: HsdR (restriction / motor subunit) of the Type I restriction-modification system EcoR124I; about 120 kDa as printed; For one SANS sample the same protein was made about 75% deuterated (85% D2O minimal medium); also called R subunit; motor subunit; source: expressed and purified as described previously [24]; deuterated form from BL21 (DE3) with the expression plasmid pBGSR124
# What was measured:
# [1] = target: T1, M.EcoR124INT methyltransferase; test: small-angle neutron scattering; ENase formed at 2:1 molar ratio HsdR:MTase, ca. 3 uM, buffer A; fully protonated complex in H2O, and complex with deuterated HsdR and protonated MTase in 40% D2O (MTase matched out); settings: both partners purified
# [2] = target: T1, M.EcoR124INT methyltransferase; test: native gel or EMSA; purified HsdR mixed with MTase at 1:1 and 2:1 molar ratios, then with a 30 bp DNA duplex with the recognition sequence (1:1 enzyme:DNA); 2 uM MTase and DNA, 2 or 4 uM HsdR; 6% non-denaturing polyacrylamide gel, 150 V, 2.5 h, 0.25x TBE; no difference with 10 mM MgCl2; settings: both partners purified
binder,measurement,setting,value
B1,stoichiometry N,[1],2 HsdR per complex
same,stoichiometry N,[2],2 HsdR per MTase

# — PMC3320862, “Structural and Functional Analysis of the Symmetrical Type I Restriction Endonuclease R.EcoR124INT” (PLOS One, 2012)
